This note sets out measurements from article PMC4002474, “Secretoglobin 1A1 and 1A1A Differentially Regulate Neutrophil Reactive Oxygen Species Production, Phagocytosis and Extracellular Trap Formation” (PLoS ONE, 2014).

In data set [1] the target is equine recombinant SCGB 1A1A (horse (E. caballus)). Briefly: non-reducing SDS-PAGE; purified recombinant protein run on SDS-PAGE in non-reducing conditions; dimers and monomers confirmed by Western blot under denaturing and mild reducing conditions.
Data set [2] concerns the molecule itself. The data set is described as above.

As a reminder, the stoichiometry N is the number of molecules, sites or subunits per partner or assembly. For the molecule “equine recombinant SCGB 1A1A (natural protein)”, the stoichiometry N in data set [1] was 2.

B1: equine recombinant SCGB 1A1 (secretoglobin family 1A member 1) (natural protein, horse (E. caballus), UniProt Q8MKG2 22-91, looked up)
chain: EICQSFADIIQGLFLGTPASFEAAVEPFKPDADMKAATTQLKTLVDFLPKNTKDSILKLMDKIAKSPLCA
notes: SCGB 1A1 of the horse (E. caballus), mature protein without the signal peptide, cDNA from equine lung, 100% identical to NCBI JQ906260.1; Cloned in pMAL-c5X, said to add no vector-derived residues after Factor Xa cleavage; Disulfide-dependent homodimer; also called club (Clara) cell secretory protein; CCSP; source: E. coli BL21 (NEB Express), purified (amylose column, Factor Xa, FPLC SuperDex …)
As to B1, the “stoichiometry N” value in data set [2] is 2.
